The text below walks through data of article PMC11754664, “DNA binding and transposition activity of the Sleeping Beauty transposase: role of structural stability of the primary DNA-binding domain”.

The target in data set [1] is T1, SB10-H19Y (synthetic Sleeping Beauty transposon, H19Y). Put plainly: MST; Full-length MST: 50 mM Tris pH 7.5, 5 mM MgCl2, 300 mM NaCl, 2% glycerol, 50 mM Arg-Glu, 1 mM TCEP, 0.1% Triton X-100, 0.1 mg/ml BSA, 30 nM Cy5-DNA, room temp. As to conditions: protein: recombinant; tags: Ni-NTA purified; label: 5' Cy5 on forward strand (MST).
Data set [2] concerns the target T2, SB100X-H19Y (synthetic Sleeping Beauty transposon, K14R;H19Y;K33A;R115H;R214D;K215A;E216V;N217Q;M243H;T314N). Described as above. The following applies: protein: recombinant; tags: Ni-NTA purified; label: 5' Cy5 on forward strand (MST).
In data set [3] the target is T3, SB100X transposase (synthetic Sleeping Beauty transposon, K14R;K33A;R115H;R214D;K215A;E216V;N217Q;M243H;T314N). Put plainly: fluorescence lifetime; Full-length MST: 50 mM Tris pH 7.5, 5 mM MgCl2, 300 mM NaCl, 2% glycerol, 50 mM Arg-Glu, 1 mM TCEP, 0.1% Triton X-100, 0.1 mg/ml BSA, 30 nM Cy5-DNA, room temp. The following applies: protein: recombinant; tags: Ni-NTA purified; label: 5' Cy5 on forward strand (MST).

In data set [4] the target is T1, SB10-H19Y. The data set is described as above. As to conditions: protein: recombinant; tags: Ni-NTA purified; label: 5' Cy5 on forward strand (MST).
Data set [5] concerns the target T4, SB10 transposase (synthetic Sleeping Beauty transposon). The data set is described as above. The following applies: protein: recombinant; tags: Ni-NTA purified; label: 5' Cy5 on forward strand (MST).
In data set [6] the target is T3, SB100X transposase. Put plainly: fluorescence anisotropy; Full-length MST: 50 mM Tris pH 7.5, 5 mM MgCl2, 300 mM NaCl, 2% glycerol, 50 mM Arg-Glu, 1 mM TCEP, 0.1% Triton X-100, 0.1 mg/ml BSA, 30 nM Cy5-DNA, room temp. The following applies: protein: recombinant; tags: Ni-NTA purified; label: 5' Cy5 on forward strand (MST). A general note: Polarisation of emitted light reports the rotation of a fluorescent probe.

Data set [7] deals with T1, SB10-H19Y. The data set is described as above. As to conditions: protein: recombinant; tags: Ni-NTA purified; label: 5' Cy5 on forward strand (MST).
The target of data set [8] is T4, SB10 transposase. The description is as above. The following applies: protein: recombinant; tags: Ni-NTA purified; label: 5' Cy5 on forward strand (MST).
Data set [9] concerns the target T3, SB100X transposase. Put plainly: MST; specific (first) transition; Full-length MST: 50 mM Tris pH 7.5, 5 mM MgCl2, 300 mM NaCl, 2% glycerol, 50 mM Arg-Glu, 1 mM TCEP, 0.1% Triton X-100, 0.1 mg/ml BSA, 30 nM Cy5-DNA, room temp. As to conditions: protein: recombinant; tags: Ni-NTA purified; label: 5' Cy5 on forward strand (MST).
The target in data set [10] is T4, SB10 transposase. Described as above. The following applies: protein: recombinant; tags: Ni-NTA purified; label: 5' Cy5 on forward strand (MST).
Data set [11] has as its target T5, H19Y (PAI K14R/H19Y/K33A) (synthetic Sleeping Beauty transposon, UniProt PDB:6URS_1, K14R;H19Y;K33A). Put plainly: NMR; HSQC, pH 5.2, 35 C, 1:4.5 protein:DNA; Full-length MST: 50 mM Tris pH 7.5, 5 mM MgCl2, 300 mM NaCl, 2% glycerol, 50 mM Arg-Glu, 1 mM TCEP, 0.1% Triton X-100, 0.1 mg/ml BSA, 30 nM Cy5-DNA, room temp. The following applies: protein: recombinant; tags: Ni-NTA purified; label: 5' Cy5 on forward strand (MST).

In data set [12] the target is T2, SB100X-H19Y. Put plainly: fluorescence lifetime; Full-length MST: 50 mM Tris pH 7.5, 5 mM MgCl2, 300 mM NaCl, 2% glycerol, 50 mM Arg-Glu, 1 mM TCEP, 0.1% Triton X-100, 0.1 mg/ml BSA, 30 nM Cy5-DNA, room temp. As to conditions: protein: recombinant; tags: Ni-NTA purified; label: 5' Cy5 on forward strand (MST).
For data set [13], the target named is T2, SB100X-H19Y. Put plainly: fluorescence anisotropy; Full-length MST: 50 mM Tris pH 7.5, 5 mM MgCl2, 300 mM NaCl, 2% glycerol, 50 mM Arg-Glu, 1 mM TCEP, 0.1% Triton X-100, 0.1 mg/ml BSA, 30 nM Cy5-DNA, room temp. As to conditions: protein: recombinant; tags: Ni-NTA purified; label: 5' Cy5 on forward strand (MST).
Data set [14] concerns the target T5, H19Y (PAI K14R/H19Y/K33A). Put plainly: NMR; HSQC and PFG diffusion, pH 5.2, 35 C; monomeric complex; Full-length MST: 50 mM Tris pH 7.5, 5 mM MgCl2, 300 mM NaCl, 2% glycerol, 50 mM Arg-Glu, 1 mM TCEP, 0.1% Triton X-100, 0.1 mg/ml BSA, 30 nM Cy5-DNA, room temp. The following applies: protein: recombinant; tags: Ni-NTA purified; label: 5' Cy5 on forward strand (MST).

Data set [15] concerns the target T2, SB100X-H19Y. Put plainly: MST; nonspecific; Full-length MST: 50 mM Tris pH 7.5, 5 mM MgCl2, 300 mM NaCl, 2% glycerol, 50 mM Arg-Glu, 1 mM TCEP, 0.1% Triton X-100, 0.1 mg/ml BSA, 30 nM Cy5-DNA, room temp. As to conditions: protein: recombinant, tags: Ni-NTA purified.
The target in data set [16] is T3, SB100X transposase. Put plainly: MST; nonspecific, monophasic; Full-length MST: 50 mM Tris pH 7.5, 5 mM MgCl2, 300 mM NaCl, 2% glycerol, 50 mM Arg-Glu, 1 mM TCEP, 0.1% Triton X-100, 0.1 mg/ml BSA, 30 nM Cy5-DNA, room temp. As to conditions: protein: recombinant; tags: Ni-NTA purified; label: Cy5 (5' forward strand).
In data set [17] the target is T4, SB10 transposase. The data set is described as above. As to conditions: protein: recombinant; tags: Ni-NTA purified; label: Cy5 (5' forward strand).
The target of data set [18] is T5, H19Y (PAI K14R/H19Y/K33A). Put plainly: NMR; HSQC and PFG diffusion, pH 5.2, 35 C, 1:5; monomeric complex; Full-length MST: 50 mM Tris pH 7.5, 5 mM MgCl2, 300 mM NaCl, 2% glycerol, 50 mM Arg-Glu, 1 mM TCEP, 0.1% Triton X-100, 0.1 mg/ml BSA, 30 nM Cy5-DNA, room temp. As to conditions: protein: recombinant; tags: Ni-NTA purified; label: 5' Cy5 on forward strand (MST).

B1: DR-core (dsDNA)
DNA 1: TCGGAAGTTTACATACAC
DNA 2: GTGTATGTAAACTTCCGA
A word on the Kd: it is the concentration at which binding is half-saturated. On to B1, for which the Kd with SB10-H19Y [1] is 31.1 ± 2.3 nM; with SB100X-H19Y [2] it was 31.2 ± 11.1 nM; with SB100X transposase [3] it was 31.6 ± 3.4 nM; in the data set with SB10-H19Y [4] it was 45.4 ± 4.8 nM; with SB10 transposase [5], 29.4 ± 2 nM; with SB100X transposase [6] it was 35.1 ± 6.6 nM. The Kd with SB10-H19Y [7] worked out at 51.3 ± 8.3 nM; in the data set with SB10 transposase [8] it was 37 ± 4 nM; in the data set with SB100X transposase [9] it was 17.3 ± 1.1 nM; with SB10 transposase [10] it was 25.3 ± 0.9 nM. Besides, the binding result in data set [11] is reported as “binds”.

B2: Lo (dsDNA)
DNA 1: CAGTTGAAGTCGGAAGTTTACATACACTTAAG
DNA 2: CTTAAGTGTATGTAAACTTCCGACTTCAACTG
Consider B2, for which the Kd with SB10-H19Y [1] was found to be 11.6 ± 1.8 nM; with SB100X-H19Y [2] it was 29.7 ± 3.5 nM; with SB100X transposase [3], 16 ± 2.6 nM; with SB10-H19Y [4] it was 13.2 ± 1.1 nM; with SB10 transposase [5] it was 23 ± 2.2 nM; in the data set with SB100X-H19Y [12] it was 20.6 ± 0.8 nM. The Kd in the data set with SB100X transposase [6] turned out to be 13.7 ± 2.8 nM; in the data set with SB10-H19Y [7] it was 9.73 ± 2.5 nM; with SB10 transposase [8] it was 23.9 ± 2.8 nM; with SB100X-H19Y [13], 17.3 ± 2.2 nM; with SB100X transposase [9], 23 ± 1.9 nM; with SB10 transposase [10] it was 16.6 ± 2.6 nM. Moreover, the binding result in [14] is listed as “binds”.

B3: NS1 (dsDNA)
DNA 1: ACCTTCCTCCGCAATACTCCCCCAGGT
DNA 2: ACCTGGGGGAGTATTGCGGAGGAAGGT
Regarding B3, the values for the Kd with SB100X-H19Y [15] (label: Cy5 (5' forward strand)), in the data set with SB100X transposase [16] and with SB10 transposase [17] were 2710 ± 210 nM, 560 ± 40 nM and 2600 ± 160 nM, respectively.

B4: Li (dsDNA)
DNA 1: TCCAGTGGGTCAGAAGTTTACATACACTAAGT
DNA 2: ACTTAGTGTATGTAAACTTCTGACCCACTGGA
As to B4, the dissociation constant Kd with SB10-H19Y [1] worked out at 10.2 ± 0.9 nM; in the data set with SB100X-H19Y [2] it was 10.3 ± 0.8 nM; with SB100X transposase [3], 25.9 ± 2.3 nM; with SB10-H19Y [4] it was 16 ± 0.7 nM; with SB10 transposase [5] it was 17.2 ± 0.8 nM; with SB100X-H19Y [12], 16.2 ± 2.3 nM. The Kd with SB100X transposase [6] is 27.6 ± 4.9 nM; in the data set with SB10-H19Y [7] it was 18.2 ± 2.2 nM; in the data set with SB10 transposase [8], 19.3 ± 2.8 nM; in the data set with SB100X-H19Y [13], 16 ± 3.2 nM; with SB100X transposase [9], 23.6 ± 2.2 nM; with SB10 transposase [10], 17.3 ± 1.2 nM. The binding result in data set [18] is “binds”.

B5: NS2 (dsDNA)
DNA 1: CGGTCTTTCCGTCTT
DNA 2: AAGACGGAAAGACCG
On to B5, for which the Kd with SB100X-H19Y [15] is 3430 ± 240 nM.
